Values belong to the binder of their own block, whether it stands above or below them. No end group written: not given here.
Target: T1, NCK2 full-length recombinant protein (mouse, WT, tag-free) (mouse, UniProt O55033 1-380)
T1 construct: NCK2, mouse, full-length recombinant; also called WT NCK2; NCK2 1|2|3; source: E. coli BL21 (DE3), purified (GSTrap, TEV cleavage, HisTrap)
Assay: fluorescence polarisation; 40 nM fluorescein isothiocyanate-conjugated peptide, NCK2 titrated (0-150 μM for CD3ε, 0-175 μM for PAK1); 17 mM Tris-HCl pH 8, 100 mM NaCl; one-site total binding model; triplicates
Settings: both partners purified

T1 sequence (O55033 whole entry): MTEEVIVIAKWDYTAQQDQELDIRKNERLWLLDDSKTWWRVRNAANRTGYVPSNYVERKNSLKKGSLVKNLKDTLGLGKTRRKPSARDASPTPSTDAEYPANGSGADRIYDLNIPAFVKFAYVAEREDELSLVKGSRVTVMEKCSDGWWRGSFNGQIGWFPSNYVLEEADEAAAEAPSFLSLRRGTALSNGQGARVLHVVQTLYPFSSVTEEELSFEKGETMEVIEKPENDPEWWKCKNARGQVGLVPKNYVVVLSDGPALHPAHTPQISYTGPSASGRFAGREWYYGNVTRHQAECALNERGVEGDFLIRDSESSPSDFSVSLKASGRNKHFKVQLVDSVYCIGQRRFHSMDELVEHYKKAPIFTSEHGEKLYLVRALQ

binding result: binds
B1: Cd3ε peptide (RGQNKERPPPVPNPDY), fluorescein isothiocyanate-conjugated (peptide)
peptide: RGQNKERPPPVPNPDY
modifications: also: fluorescein isothiocyanate-conjugated (position not given here)
notes: peptide of CD3 epsilon, ligand of NCK2 SH3-1; also called CD3Ɛ

binding result: binds
B2: PAK1 peptide (DIQDKPPAPPMRNTST), fluorescein isothiocyanate-conjugated (peptide)
peptide: DIQDKPPAPPMRNTST
modifications: also: fluorescein isothiocyanate-conjugated (position not given here)
notes: peptide of PAK1, ligand of NCK2 SH3-2; also called PAK1 target peptide
